Tests used:
Conditions in all cases: both partners purified
[1] = biological target: engineered ScCRM1 (residues 1-1058, △377-413, 537DLTVK541 to GLCEQ, V441D) (S. cerevisiae, UniProt P30822 1-1058, △377–413 | 537DLTVK541 to GLCEQ | V441D); test: crystal structure; NES peptide bound to the engineered ScCRM1-RanGppNHp-Yrb1p complex; crystallised as in Fung et al., 2015
[2] = biological target: T1, human CRM1 (HsCRM1), wild type (human, UniProt O14980 1-1071); test: differential bleaching; competition titration of MBP-NES to FITC-PKI NES and CRM1 with excess RanGTP; triplicate; fitted with a set of direct titrations
T1 construct: human CRM1 / Exportin-1 (XPO1); Always used together with RanGTP (ScRanGTP in the pull-downs); also called Exportin-1; XPO1
T1 sequence (O14980 whole entry): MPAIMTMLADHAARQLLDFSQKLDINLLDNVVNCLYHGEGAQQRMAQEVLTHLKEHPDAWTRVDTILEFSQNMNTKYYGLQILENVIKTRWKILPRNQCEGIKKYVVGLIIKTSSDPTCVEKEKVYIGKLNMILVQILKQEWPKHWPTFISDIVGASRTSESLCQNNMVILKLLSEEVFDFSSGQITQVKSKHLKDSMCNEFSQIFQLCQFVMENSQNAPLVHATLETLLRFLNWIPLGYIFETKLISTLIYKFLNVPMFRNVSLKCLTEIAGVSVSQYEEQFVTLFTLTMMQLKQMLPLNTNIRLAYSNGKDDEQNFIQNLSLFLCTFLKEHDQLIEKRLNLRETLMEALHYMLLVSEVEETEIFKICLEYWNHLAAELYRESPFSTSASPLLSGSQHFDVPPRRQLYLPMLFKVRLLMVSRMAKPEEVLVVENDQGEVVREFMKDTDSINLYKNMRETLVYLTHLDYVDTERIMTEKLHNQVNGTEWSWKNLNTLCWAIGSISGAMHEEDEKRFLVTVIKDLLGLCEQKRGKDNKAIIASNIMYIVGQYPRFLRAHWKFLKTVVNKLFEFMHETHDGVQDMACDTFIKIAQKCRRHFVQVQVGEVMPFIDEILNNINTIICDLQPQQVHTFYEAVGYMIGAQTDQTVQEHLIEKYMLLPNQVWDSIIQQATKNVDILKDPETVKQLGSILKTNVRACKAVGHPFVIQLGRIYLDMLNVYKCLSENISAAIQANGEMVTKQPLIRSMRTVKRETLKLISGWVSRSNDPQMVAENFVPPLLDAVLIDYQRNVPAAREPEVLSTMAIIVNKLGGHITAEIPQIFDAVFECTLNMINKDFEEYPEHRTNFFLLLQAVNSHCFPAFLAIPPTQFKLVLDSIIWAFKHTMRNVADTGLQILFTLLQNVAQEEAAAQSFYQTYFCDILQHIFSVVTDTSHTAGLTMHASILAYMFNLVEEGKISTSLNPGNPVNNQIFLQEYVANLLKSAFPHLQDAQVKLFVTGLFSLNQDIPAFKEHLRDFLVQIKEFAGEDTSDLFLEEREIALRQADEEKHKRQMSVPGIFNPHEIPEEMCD

[3] = biological target: engineered ScCRM1(K579A) mutant (S. cerevisiae, UniProt P30822 1-1058, △377–413 | 537DLTVK541 to GLCEQ | V441D | K579A); test: crystal structure; NES peptide bound to the engineered ScCRM1-RanGppNHp-Yrb1p complex; crystallised as in Fung et al., 2015
[4] = biological target: T1, human CRM1 (HsCRM1), wild type; test: pull-down; ~10 µg immobilized GST-NES, 2.5 µM HsCRM1 and 7.5 µM ScRanGTP in 200 µL
[5] = biological target: T2, human CRM1 mutant HsCRM1(K568M) (human, UniProt O14980 1-1071, K568M); test: pull-down; ~5 µg immobilized GST-NESs, 500 nM HsCRM1 (wild type or mutant) and 1.5 µM ScRanGTP in 1 mL
T2 construct: human CRM1 / Exportin-1 (XPO1) with K568M; Used together with RanGTP
T2 sequence (O14980 whole entry K568M): as the sequence (O14980 whole entry) above, with K568M counted along it

[6] = biological target: T1, human CRM1 (HsCRM1), wild type; test: as above
[7] = biological target: T3, human CRM1 mutant HsCRM1(K568A) (human, UniProt O14980 1-1071, K568A); test: as above
T3 construct: human CRM1 / Exportin-1 (XPO1) with K568A; Used together with RanGTP
T3 sequence (O14980 whole entry K568A): as the sequence (O14980 whole entry) above, with K568A counted along it

[8] = biological target: T2, human CRM1 mutant HsCRM1(K568M); test: pull-down; ~5 µg immobilized GST-NESs, 7.5 µM ScRanGTP and 2.5 µM HsCRM1 (wild type or mutant) in 200 µL
[9] = biological target: T3, human CRM1 mutant HsCRM1(K568A); test: as above

B1: Paxillin NES peptide (crystallised) (peptide)
peptide: RELDELMASLSDFKFMAQ
notes: Paxillin, residues 264-281; Extra N-terminal residues such as those printed for mDia2 (GGSY) and FMRP-1b (GGS) may be present; also called Pax^NES; source: expressed and purified as described in Fung et al., 2015
binding result [1]: binds

B2: MBP-SMAD4 NES (peptide)
chain: YERVVSPGIDLSGLTLQ
notes: Mothers against decapentaplegic homolog 4 (SMAD4), residues 133-149; also called MBP-NES; not shown: MBP, N-terminal, kept
binding result [2]: binds

B3: MBP-mDia2 NES (wild type) (peptide)
chain: SVPEVEALLARLRAL
notes: mouse diaphanous homolog 3 (mDia2), residues 1179-1193; also called wild type mDia2^NES; not shown: MBP, N-terminal, kept
Kd [2]: 1.7 µM

B4: MBP-X11L2 NES (peptide)
chain: SSLQELVQQFEALPGDLV
notes: also called MBP-NES; not shown: MBP, N-terminal, kept
binding result [2]: binds

B5: mDia2 NES peptide (crystallised) (peptide)
peptide: GGSYSVPEVEALLARLRAL
notes: residues printed before the NES in the crystallised peptide; not of mDia2; mouse diaphanous homolog 3 (mDia2), residues 1179-1193; source: expressed and purified as described in Fung et al., 2015
binding result [1]: binds

B6: FMRP NES peptide (crystallised) (peptide)
peptide: YLKEVDQLRLERLQI
notes: fragile X mental retardation protein (FMRP), residues 423-437; Extra N-terminal residues such as those printed for mDia2 (GGSY) and FMRP-1b (GGS) may be present; source: expressed and purified as described in Fung et al., 2015
binding result [1]: binds

B7: MBP-HDAC5 NES (peptide)
chain: EAETVSAMALLSVG
notes: Histone deacetylase 5 (HDAC5), residues 1082-1095; also called HDAC^NES; MBP-NES; not shown: MBP, N-terminal, kept
binding result [2]: binds

B8: DEAF1 peptide (crystallised, false positive NES) (peptide)
peptide: SWLYLEEMVNSLLNTAQQ
notes: Deformed Epidermal Autoregulatory Factor 1 homolog (DEAF1), residues 452-469; Extra N-terminal residues such as those printed for mDia2 (GGSY) and FMRP-1b (GGS) may be present; also called DEAF^pep; source: expressed and purified as described in Fung et al., 2015
binding result [3]: binds

B9: MBP-Paxillin NES (peptide)
chain: RELDELMASLSDFKFMAQ
notes: Paxillin, residues 264-281; also called Pax^NES; MBP-NES; not shown: MBP, N-terminal, kept
binding result [2]: binds

B10: GST-CDC7 NES (peptide)
chain: QDLRKLCERLRGMDSSTP
notes: cell division cycle 7-related protein kinase (CDC7), residues 456-473; source: as described in Fung et al., 2015; not shown: GST, N-terminal, kept
binding result [4]: binds

B11: GST-X11L2 NES (peptide)
chain: SSLQELVQQFEALPGDLV
notes: source: as described in Fung et al., 2015; not shown: GST, N-terminal, kept
binding result [5]: binds
binding result [6]: binds
binding result [7]: binds

B12: GST-DEAF1 peptide (false positive NES) (peptide)
chain: SWLYLEEMVNSLLNTAQQ
notes: Deformed Epidermal Autoregulatory Factor 1 homolog (DEAF1), residues 452-469; also called GST-NESs; source: as described in Fung et al., 2015; not shown: GST, N-terminal, kept
binding result [8]: binds
binding result [9]: binds

B13: GST-Hxk2 peptide (false positive NES) (peptide)
chain: DVPKELMQQIENFEKIFTV
notes: Hexokinase-2 (Hxk2), residues 18-36; also called GST-NESs; source: as described in Fung et al., 2015; not shown: GST, N-terminal, kept
binding result [9]: binds

B14: MBP-FMRP NES (peptide)
chain: YLKEVDQLRLERLQI
notes: fragile X mental retardation protein (FMRP), residues 423-437; also called MBP-NES; not shown: MBP, N-terminal, kept
binding result [2]: binds

B15: MBP-CDC7 NES (peptide)
chain: QDLRKLCERLRGMDSSTP
notes: cell division cycle 7-related protein kinase (CDC7), residues 456-473; also called MBP-NES; not shown: MBP, N-terminal, kept
binding result [2]: binds

B16: Hxk2 peptide (crystallised, false positive NES) (peptide)
peptide: DVPKELMQQIENFEKIFTV
notes: Hexokinase-2 (Hxk2), residues 18-36; Extra N-terminal residues such as those printed for mDia2 (GGSY) and FMRP-1b (GGS) may be present; source: expressed and purified as described in Fung et al., 2015
binding result [3]: binds

B17: SMAD4 NES peptide (crystallised) (peptide)
peptide: YERVVSPGIDLSGLTLQ
notes: Mothers against decapentaplegic homolog 4 (SMAD4), residues 133-149; Extra N-terminal residues such as those printed for mDia2 (GGSY) and FMRP-1b (GGS) may be present; source: expressed and purified as described in Fung et al., 2015
binding result [1]: binds

NSNELALKLAGLDANKT [PKI NES(Φ4A) mutant (MBP fusion)]
Kd [2]: 150 µM

B18: HDAC5 NES peptide (crystallised) (peptide)
peptide: EAETVSAMALLSVG
notes: Histone deacetylase 5 (HDAC5), residues 1082-1095; Extra N-terminal residues such as those printed for mDia2 (GGSY) and FMRP-1b (GGS) may be present; also called HDAC^NES; source: expressed and purified as described in Fung et al., 2015
binding result [1]: binds

B19: CDC7 NES peptide (crystallised) (peptide)
peptide: QDLRKLCERLRGMDSSTP
notes: cell division cycle 7-related protein kinase (CDC7), residues 456-473; Extra N-terminal residues such as those printed for mDia2 (GGSY) and FMRP-1b (GGS) may be present; source: expressed and purified as described in Fung et al., 2015
binding result [1]: binds

B20: X11L2 NES peptide (crystallised) (peptide)
peptide: SSLQELVQQFEALPGDLV
notes: Extra N-terminal residues such as those printed for mDia2 (GGSY) and FMRP-1b (GGS) may be present; source: expressed and purified as described in Fung et al., 2015
binding result [1]: binds
